Laboratory results published in patent US20220241354A1, “COMPOSITION” (MORINAGA MILK INDUSTRY CO., LTD., priority 2019, published 2022).

Columns and labels:
[1] = tested on: Bifidobacterium breve M-16V; assay: Growth promoting effect on Bifidobacterium breve M-16V (turbidity at 600 nm after anaerobic culture); format: cell-based; conditions: 2′-FL 0.000 mass %, glucose-free MRS, 37° C., 24 hours, n = 4
Experimental: (§1) DifcoMRS (BD) was dissolved in purified water as described in a package insert and sterilized at 115° C. for 15 minutes. L-Cysteine hydrochloride (Wako) was dissolved in purified water, filtered and sterilized, and was aseptically added to MRS medium cooled to room temperature after sterilization to have a final concentration of 0.05% by mass.
as §1, with “A reagent” for “DifcoMRS (BD)”, “with the composition shown” for “as described”, “Table 1” for “a package insert”
Human milk oligosaccharide (2′-fucosyllactose (2′-FL) (Carbosynth)) and lactoferrin (produced by Morinaga Milk Industry Co., Ltd., iron content 15.8 mg/100 g) were dissolved in purified water, respectively. They were filtered and sterilized after dissolution.
(§2) 150 μL of a pre-culture solution of Bifidobacterium breve M-16V was added to 3 mL of MRS medium prepared in (1) (i), and was anaerobically cultured at 37° C. for 16 hours. After culturing, the cells were separated from the culture solution by centrifuging at 1500×g for 5 minutes. The culture solution was removed, and the cells were resuspended in 3 mL of glucose-free MRS medium prepared in (1) (ii).
(§3) The pre-culture solution prepared in (2) was added to the glucose-free MRS medium prepared in (1) (ii) to have a final concentration of 1 v/v %. Further, the 2′-fucosyllactose (2′-FL) solution and the lactoferrin solution prepared in (1) (iii) were respectively added to have the final concentrations shown in Table 2, and were dispensed into a 96-well plate at 200 μL/well.
(§4) Then, the cells were anaerobically cultured at 37° C. for 24 hours. After culturing, turbidity was measured at a wavelength of 600 nm using a microplate reader (Corona Electric) to evaluate the growth of bifidobacteria.

[2] = tested on: Bifidobacterium infantis M-63; assay: Growth promoting effect on Bifidobacterium infantis M-63 (turbidity at 600 nm); format: cell-based; conditions: 2′-FL 0.000 mass %, 37° C., 24 hours, n = 12
Experimental: as §2, §3, §4
The same operation as in Example 1 was carried out except that the bifidobacteria were replaced with Bifidobacterium infantis M-63, and the growth was evaluated.

B1: lactoferrin (protein, UniProt P24627 20-708, looked up)
Lactotransferrin: APRKNVRWCTISQPEWFKCRRWQWRMKKLGAPSITCVRRAFALECIRAIAEKKADAVTLDGGMVFEAGRDPYKLRPVAAEIYGTKESPQTHYYAVAVVKKGSNFQLDQLQGRKSCHTGLGRSAGWIIPMGILRPYLSWTESLEPLQGAVAKFFSASCVPCIDRQAYPNLCQLCKGEGENQCACSSREPYFGYSGAFKCLQDGAGDVAFVKETTVFENLPEKADRDQYELLCLNNSRAPVDAFKECHLAQVPSHAVVARSVDGKEDLIWKLLSKAQEKFGKNKSRSFQLFGSPPGQRDLLFKDSALGFLRIPSKVDSALYLGSRYLTTLKNLRETAEEVKARYTRVVWCAVGPEEQKKCQQWSQQSGQNVTCATASTTDDCIVLVLKGEADALNLDGGYIYTAGKCGLVPVLAENRKSSKHSSLDCVLRPTEGYLAVAVVKKANEGLTWNSLKDKKSCHTAVDRTAGWNIPMGLIVNQTGSCAFDEFFSQSCAPGADPKSRLCALCAGDDQGLDKCVPNSKEKYYGYTGAFRCLAEDVGDVAFVKNDTVWENTNGESTADWAKNLNREDFRLLCLDGTRKPVTEAQSCHLAVAPNHAVVSRSDRAAHVKQVLLHQQALFGKNGKNCPDKFCLFKSETKNLLFNDNTECLAKLGGRPTYEEYLGTEYVTAIANLKKCSTSPLLEACAFLTR
notes: lactoferrin produced by Morinaga Milk Industry Co., Ltd., iron content 15.8 mg/100 g
In the case of B1, the OD600 ([1]; lactoferrin 0.031 mg/mL) is reported as 0.072, the OD600 ([1]; lactoferrin 0.063 mg/mL) is reported as 0.074 and the OD600 ([1]; lactoferrin 0.125 mg/mL) is reported as 0.073. It also gave an OD600 ([1]; lactoferrin 0.250 mg/mL) of 0.074, an OD600 ([1]; lactoferrin 0.500 mg/mL) of 0.075 and an OD600 ([1]; lactoferrin 1.000 mg/mL) of 0.078. The OD600 ([2]; lactoferrin 0.500 mg/mL) was 0.093 and the OD600 ([2]; lactoferrin 1.000 mg/mL) was 0.101.
